According to patent US20170182124A1, “FGF21 Derivatives and Uses Thereof” (Novo Nordisk A/S, priority 2014, published 2017):
Read-outs that look alike come from different tables or passages of the source. Marks after values point to notes of the source that are not given here.

Assays:
3T3-L1 adipocytes = 3T3-L1 adipocytes (Mus musculus, UniProt P16092+Q99N32); experiment: Glucose uptake in 3T3-L1 adipocytes; type: cell-based; settings: stimulated 20 hours, 3H-deoxy-glucose
Description: The C-terminal modified analogues were tested for their ability to increase glucose uptake in 3T3-L1 mouse adipocytes. The following assay was used for determining the biological activity, or potency, of FGF21 analogues and derivatives of the invention.
The in vitro potency may also be determined in an assay with mouse 3T3-L1 adipocytes by testing the FGF21 analogues and derivatives for their ability to increase glucose uptake into adipocytes. Differentiated 3T3-L1 adipocytes endogenously express FGFR1c and BKL. The 3T3-L1 cells are unresponsive to FGF21 until after differentiated as differentiation lead to expression of the co-receptor BKL. Activation of the FGFR1 receptor/BKL complex increase the expression of glucose transporter 1 (GLUT1) and therefore FGF21 agonists will lead to an increased amount of glucose taken into the adipocytes in a dose responsive manner.
Mouse 3T3-L1 fibroblasts (e.g. available from ATCC, catalogue no. CL-173) were maintained in basal medium (DMEM (4500 mg/I Glucose) with 10% Fetal Bovine Serum (FBS) and 1% Penicillin/Streptomycin). The cells are not allowed to reach confluence and should be passed (transferred to new vials) before reaching approx. 60% of confluency (by visual inspection).
For the glucose uptake assay, cells were 15.000 cells/well in a 96 well plate (BIOCOAT), and when they reached confluency (high density, with a view to have differentiated adipose cells made), the medium was changed from basal medium to basal medium containing Troglitazone, IBMX, Dexamethasone (commercially available from, e.g., Sigma) and human insulin (commercially available from, e.g., Novo Nordisk A/S).
The cells were used 7-9, days after initiation of differentiation. The cells were stimulated with increasing concentrations (0-300 nM) of the FGF21 analogues or derivatives of the invention for 20 hours in basal medium. Before addition of 3H-deoxy-glucose (in what follows: the tracer) the cells were washed in warm (approximately 37° C.) assay buffer (PBS with 1 mM MgCl2 and 2 mM CaCl2), HEPES and 0.1% Human serum albumin) and the cells were incubated with the tracer for 1 hour. This incubation was terminated by washing twice in ice cold assay buffer. The cells were lysed with Triton X-100 and lysates transferred to a 96 wells plate, microscint-40 (commercially available from, e.g., Perkin Elmer) was added and amount of tracer counted in a TOP-counter (e.g. a Packard top-counter from Perkin Elmer). The EC50 and Emax of the FGF21 compound in question were calculated. The results which are shown in tables 4-5 below indicate the EC50 (potency) and Emax (efficacy) of the FGF21 analogues and derivatives, respectively.

[1] = Body weight reduction in lean mice; type: in vivo, lean C57BL mice; settings: change from baseline day 1 to 7
Description: In order to determine the in vivo potency of the FGF21 derivatives the effect on body weight was studied in lean C57BL mice after subcutaneous (s.c.) administration. It has previously been shown that the weight loss induced by FGF21 in lean mice is predictive of the effect in obese mice and therefore lean mice are considered a good screening model.
The compounds were administered s.c. 1 mg/kg either once (QD) or twice (BID) daily in 10 mM phosphate, 2% (w/vol) glycerol, 500ppm (=0.05%) polysorbate 80, pH=8.15, (2 ml/kg) for 7 days (n=7-8). The respective vehicle treated groups (control) were treated with 10 mM phosphate, 2% (w/vol) glycerol, 500ppm (=0.05%) polysorbate 80, pH=8.15, (2 ml/kg) s.c. twice daily for 7 days (n=6-8). Body weight was measured before dosing and again after 7 days treatment.

[2] = mouse, in vivo, iv, 20 mg/kg
Description: (§1) This was done in a pharmacokinetic (PK) study, where the terminal half-life of the analogue in question was determined. By terminal half-life is meant the time it takes to halve a certain plasma concentration in the terminal elimination phase.
(§2) The pharmacokinetic profile of FGF21 analogues was tested in normal lean C57b1 mice, n =2-3 (approximately 30 grams). FGF21 compounds were dosed as a single intravenous dose of 20 mg/kg (approximately 5 ml/kg).
(§3) The plasma levels of the FGF21 compounds were determined using Fibroblast Growth Factor-21 Human ELISA (available from BioVendor, catalogue no. RD191108200R). The PC based software, WnNonLin version 6.3 from Pharsight Corportion, Cary N.C., was used for the pharmacokinetic calculation.

[3] = pig, in vivo, iv
Description: (§4) The purpose of this study was to determine the protraction in vivo of the FGF21 derivatives after i.v. administration to mini pigs and mice, i.e. the prolongation of their time in the body and thereby their time of action. This was done in a pharmacokinetic (PK) study, where the terminal half-life of the analogue in question was determined. By terminal half-life is meant the time it takes to halve a certain plasma concentration in the terminal elimination phase.
(§5) Female Gottingen mini pigs were obtained from Ellegaard Gottingen Minipigs (Dalmose, Denmark) approximately 7-14 months of age and weighing approximately 16-35 kg were used in the studies. The mini pigs were housed either individually (pigs with permanent catheters) or in a group and fed restrictedly once or twice daily with SDS mini pig diet (Special Diets Services, Essex, UK).
(§6) After at least 2 weeks of acclimatisation two permanent central venous catheters were implanted in vena cava caudalis or cranialis in each animal. The animals were allowed 1 week recovery after the surgery, and were then used for repeated pharmacokinetic studies with a suitable wash-out period between successive dosing.
(§7) Blood samples (for example 0.8 ml) were collected in EDTA (8 mM) coated tubes and then centrifuged at 4° C. and 1942G for 10 minutes. Blood samples were collected to adequately cover the full plasma concentration-time profile of the API. In example blood samples were collected at t=predose, 0.0833, 0.25, 0.5, 0.75, 1, 1.5, 2, 3, 4, 6, 8, 10, 24, 30, 48, 72, 96, 120, 144, 168, 192, 216, 240, 264 hours after dose.
(§8) Plasma was pipetted into Micronic tubes on dry ice, and kept at −20° C. until analysed for plasma concentration of the respective FGF-1 analogue using ELISA. Individual plasma concentration-time profiles were analyzed by a non-compartmental pharmacokinetic method in Phoenix v. 6.3 (Pharsight Inc., Mountain View, Calif., USA), or other relevant software for PK analysis, and the resulting terminal half-lives (harmonic mean) determined.

FGF receptor/BKL complex = experiment: FGF receptor potency in an Erk phosphorylation assay in HEK293 overexpressing human BKL; type: cell-based; settings: HEK293/BKL cells, pERK after 12 minutes
Outline: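 pERK after 12 min analogue exposure at 37° C. was quantified by AlphaScreen SureFire in lysates of beta-klotho-transfected HEK293 cells. Assay medium was DMEM with 0.02% Tween20, run both without albumin and with 0.1% final HSA to probe albumin binding. Cells were starved 2 h in basal medium first. Absolute EC50 reported.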

[4] = Pharmacokinetic study in mice (i.v.); settings: terminal half-life, single intravenous dose of 20 mg/kg, lean C57bl mice
Description: as §1, §2, §3

[5] = Pharmacokinetic study in mini pigs (i.v.); settings: terminal half-life, female Gottingen mini pigs
Description: as §4, §5, §6, §7, §8

[6] = presence of 0.1% HSA, read-out: EC50 (0.1% HSA)

FGF receptor/BKL complex, sequence (Q86Z14 whole entry, one chain of several): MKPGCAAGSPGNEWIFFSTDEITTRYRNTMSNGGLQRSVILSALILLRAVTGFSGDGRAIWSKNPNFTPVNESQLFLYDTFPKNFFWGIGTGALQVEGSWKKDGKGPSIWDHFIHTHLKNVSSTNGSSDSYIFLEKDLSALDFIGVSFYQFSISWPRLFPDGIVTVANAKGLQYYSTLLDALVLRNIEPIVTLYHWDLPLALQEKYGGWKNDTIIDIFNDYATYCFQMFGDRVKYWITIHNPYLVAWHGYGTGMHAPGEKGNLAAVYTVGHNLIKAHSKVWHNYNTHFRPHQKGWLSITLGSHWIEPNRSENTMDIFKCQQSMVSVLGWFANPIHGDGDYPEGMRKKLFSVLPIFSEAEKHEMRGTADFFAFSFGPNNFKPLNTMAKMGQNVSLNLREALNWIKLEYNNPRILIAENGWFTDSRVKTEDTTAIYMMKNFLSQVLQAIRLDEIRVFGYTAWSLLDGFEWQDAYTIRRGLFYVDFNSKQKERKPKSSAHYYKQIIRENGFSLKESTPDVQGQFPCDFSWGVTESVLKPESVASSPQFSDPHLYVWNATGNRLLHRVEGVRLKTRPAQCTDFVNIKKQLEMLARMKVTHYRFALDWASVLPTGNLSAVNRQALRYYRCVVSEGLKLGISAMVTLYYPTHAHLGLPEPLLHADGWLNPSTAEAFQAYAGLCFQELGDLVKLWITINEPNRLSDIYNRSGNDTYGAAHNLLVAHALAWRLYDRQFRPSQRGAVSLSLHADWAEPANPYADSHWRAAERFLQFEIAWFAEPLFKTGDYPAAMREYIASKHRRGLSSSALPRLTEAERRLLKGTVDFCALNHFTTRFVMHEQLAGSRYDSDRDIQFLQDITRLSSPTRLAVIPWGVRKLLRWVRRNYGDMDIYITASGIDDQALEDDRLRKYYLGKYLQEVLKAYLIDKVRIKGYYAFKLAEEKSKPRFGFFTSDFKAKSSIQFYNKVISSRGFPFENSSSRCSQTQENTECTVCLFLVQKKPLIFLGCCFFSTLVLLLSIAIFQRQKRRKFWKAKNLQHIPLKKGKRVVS
3T3-L1 adipocytes, sequence (Q99N32 whole entry): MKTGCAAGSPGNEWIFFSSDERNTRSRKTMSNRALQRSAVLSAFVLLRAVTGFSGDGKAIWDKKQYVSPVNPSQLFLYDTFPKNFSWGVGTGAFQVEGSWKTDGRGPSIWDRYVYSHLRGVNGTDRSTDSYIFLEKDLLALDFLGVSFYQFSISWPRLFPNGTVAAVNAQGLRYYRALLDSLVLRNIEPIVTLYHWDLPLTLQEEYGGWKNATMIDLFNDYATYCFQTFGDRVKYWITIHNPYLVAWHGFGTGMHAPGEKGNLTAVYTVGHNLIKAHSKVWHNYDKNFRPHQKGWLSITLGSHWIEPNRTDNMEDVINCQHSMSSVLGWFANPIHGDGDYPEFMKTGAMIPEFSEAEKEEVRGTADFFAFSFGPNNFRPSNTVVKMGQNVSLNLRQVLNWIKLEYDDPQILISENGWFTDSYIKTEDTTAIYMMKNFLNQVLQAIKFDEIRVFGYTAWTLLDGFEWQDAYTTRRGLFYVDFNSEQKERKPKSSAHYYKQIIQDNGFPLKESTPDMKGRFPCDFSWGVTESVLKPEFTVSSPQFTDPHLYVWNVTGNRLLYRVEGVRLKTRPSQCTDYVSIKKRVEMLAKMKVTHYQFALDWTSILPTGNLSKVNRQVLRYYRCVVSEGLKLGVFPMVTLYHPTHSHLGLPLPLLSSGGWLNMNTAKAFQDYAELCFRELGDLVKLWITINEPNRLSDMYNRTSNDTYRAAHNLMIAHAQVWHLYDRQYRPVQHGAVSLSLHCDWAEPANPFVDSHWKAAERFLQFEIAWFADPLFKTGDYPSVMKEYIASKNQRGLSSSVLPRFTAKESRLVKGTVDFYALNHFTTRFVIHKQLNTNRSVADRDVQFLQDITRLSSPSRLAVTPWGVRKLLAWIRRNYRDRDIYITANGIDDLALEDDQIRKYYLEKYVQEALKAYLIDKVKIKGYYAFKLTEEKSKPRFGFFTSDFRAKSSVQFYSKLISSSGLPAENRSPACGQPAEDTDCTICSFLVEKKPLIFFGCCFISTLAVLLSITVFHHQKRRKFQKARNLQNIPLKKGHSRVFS
3T3-L1 adipocytes, sequence (P16092 22-822): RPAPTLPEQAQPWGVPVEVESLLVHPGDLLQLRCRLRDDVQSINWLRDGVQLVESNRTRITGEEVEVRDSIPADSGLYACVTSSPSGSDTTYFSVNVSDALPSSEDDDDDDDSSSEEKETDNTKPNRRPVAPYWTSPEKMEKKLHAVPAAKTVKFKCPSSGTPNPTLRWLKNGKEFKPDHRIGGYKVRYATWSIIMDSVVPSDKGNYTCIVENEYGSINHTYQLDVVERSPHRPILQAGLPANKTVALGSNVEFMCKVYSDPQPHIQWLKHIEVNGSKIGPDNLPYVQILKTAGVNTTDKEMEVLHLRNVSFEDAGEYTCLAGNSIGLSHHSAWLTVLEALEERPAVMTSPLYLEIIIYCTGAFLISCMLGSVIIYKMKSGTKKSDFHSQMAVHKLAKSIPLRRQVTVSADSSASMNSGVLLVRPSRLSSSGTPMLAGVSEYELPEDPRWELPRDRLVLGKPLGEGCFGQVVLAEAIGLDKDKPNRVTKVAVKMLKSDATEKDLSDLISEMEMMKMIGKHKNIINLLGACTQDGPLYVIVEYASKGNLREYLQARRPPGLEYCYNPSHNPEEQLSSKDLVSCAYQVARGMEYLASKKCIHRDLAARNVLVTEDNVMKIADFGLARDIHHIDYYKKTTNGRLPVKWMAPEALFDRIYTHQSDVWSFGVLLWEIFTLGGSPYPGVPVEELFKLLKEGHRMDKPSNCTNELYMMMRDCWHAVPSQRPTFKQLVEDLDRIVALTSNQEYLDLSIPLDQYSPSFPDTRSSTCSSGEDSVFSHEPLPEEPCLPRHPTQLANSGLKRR

Molecule	Glucose uptake Emax (3T3-L1 adipocytes) [%]	Mean Δ body weight (%) ([1]; s.c. 1 mg/kg BID for 7 days)	Half-life mice [2] [h]	Half-life mini pigs [3] [h]	EC50 (FGF receptor/BKL complex; absence of HSA, read-out: EC50) [nM]	EC50 (FGF receptor/BKL complex; [6]) [nM]	EC50 (3T3-L1 adipocytes) [nM]	Mean Δ body weight (%) ([1]; s.c. 1 mg/kg QD for 7 days)	Half-life mice [4] [h]	Half-life mini pigs [5] [h]
MetFGF21 (protein) MHPIPDSSPLLQFGGQVRQRYLYTDDAQQTEAHLEIREDGTVGGAADQSPESLLQLKALKPGVIQILGVKTSRFLCQRPDGALYGSLHFDPEACSFRELLLEDGYNVYQSEAHGLPLHLPGNKSPHRDPAPRGPARFLPLPGLPPALPEPPGILAPQPPDVGSSDPLSMVGPSQGRSPSYAS	100	−1.88** %	1	2						
S{Beta-180}-[2-[2-[[2-[2-[2-[[2-[2-[2-[[(4S)-4-carboxy-4-(13-carboxytridecanoyl-amino)butanoyl]amino]ethoxy]ethoxy]acetyl]amino]ethoxy]ethoxy]acetyl]amino]-ethylamino]-2-oxoethyl]-Ala[Gln121,Leu168,Cy … (protein) HPIPDSSPLLQFGGQVRQRYLYTDDAQQTEAHLEIREDGTVGGAADQSPESLLQLKALKPGVIQILGVKTSRFLCQRPDGALYGSLHFDPEACSFRELLLEDGYNVYQSEAHGLPLHLPGQKSPHRDPAPRGPARFLPLPGLPPALPEPPGILAPQPPDVGSSDPLSLVGPSQGRSPSYCS	106	−3.09* %			6	6	6.7	1.85%	1	3
S{Beta-180}-[2-[2-[[2-[2-[2-[[2-[2-[2-[[(4S)-4-carboxy-4-(17-carboxyheptadecanoyl-amino)butanoyl]amino]ethoxy]ethoxy]acetyl]amino]ethoxy]ethoxy]acetyl]amino]-ethylamino]-2-oxoethyl]-Ala[Gln121,Leu168, … (protein) HPIPDSSPLLQFGGQVRQRYLYTDDAQQTEAHLEIREDGTVGGAADQSPESLLQLKALKPGVIQILGVKTSRFLCQRPDGALYGSLHFDPEACSFRELLLEDGYNVYQSEAHGLPLHLPGQKSPHRDPAPRGPARFLPLPGLPPALPEPPGILAPQPPDVGSSDPLSLVGPSQGRSPSYCS	109				5	48	32	−10.59*** %	12	70
S{Beta-181}-[2-[2-[[2-[2-[2-[[2-[2-[2-[[(4S)-4-carboxy-4-(15-carboxypentadecanoyl-amino)butanoyl]amino]ethoxy]ethoxy]acetyl]amino]ethoxy]ethoxy]acetyl]amino]-ethylamino]-2-oxoethyl]-Ala[Gln121,Leu168, … (protein) HPIPDSSPLLQFGGQVRQRYLYTDDAQQTEAHLEIREDGTVGGAADQSPESLLQLKALKPGVIQILGVKTSRFLCQRPDGALYGSLHFDPEACSFRELLLEDGYNVYQSEAHGLPLHLPGQKSPHRDPAPRGPARFLPLPGLPPALPEPPGILAPQPPDVGSSDPLSLVGPSQGRSPSYAC	61				55	72	31	0.18%	4	25
S{Beta-180}-[2-[2-[[2-[2-[2-[[2-[2-[2-[[(4S)-4-carboxy-4-(15-carboxypentadecanoyl-amino)butanoyl]amino]ethoxy]ethoxy]acetyl]amino]ethoxy]ethoxy]acetyl]amino]-ethylamino]-2-oxoethyl]-Ala[Gln121,Leu168, … (protein) HPIPDSSPLLQFGGQVRQRYLYTDDAQQTEAHLEIREDGTVGGAADQSPESLLQLKALKPGVIQILGVKTSRFLCQRPDGALYGSLHFDPEACSFRELLLEDGYNVYQSEAHGLPLHLPGQKSPHRDPAPRGPARFLPLPGLPPALPEPPGILAPQPPDVGSSDPLSLVGPSQGRSPSYCS	98				4	6	9.1	−4.48*** %	3	23
S{Beta-181}-[2-[2-[[2-[2-[2-[[2-[2-[2-[[(4S)-4-carboxy-4-(13-carboxytridecanoyl-amino)butanoyl]amino]ethoxy]ethoxy]acetyl]amino]ethoxy]ethoxy]acetyl]amino]-ethylamino]-2-oxoethyl]-Ala[Gln121,Leu168,Cy … (protein) HPIPDSSPLLQFGGQVRQRYLYTDDAQQTEAHLEIREDGTVGGAADQSPESLLQLKALKPGVIQILGVKTSRFLCQRPDGALYGSLHFDPEACSFRELLLEDGYNVYQSEAHGLPLHLPGQKSPHRDPAPRGPARFLPLPGLPPALPEPPGILAPQPPDVGSSDPLSLVGPSQGRSPSYAC	55	−0.94%			58	41	7.2		3	2
